This series is described as follows: soluble on expression in E. coli; label from the status in PepcDB or PDB records.
Take “MKMTLPFKPHVLALICSAGLCAASAGLYIKSRTVEAPVETQSTQLAVSDAAAVTLPATVSAPPVTPAVVKSAFSTAQIDQWVAPVALYPDALLSQVLMASTYPTNVAQAVQWSHDNPLKQGDAAIQAVSDQPWDASVKSLVAFPQLMALMGENPQWVQNLGDAFLAQPQDVMDSVQRLRQLAQQTGSLKSSTEQKVITTTKKTVPVTQTVTAPVIPSNTVSTANPVITEPATTVISIEPGNPDVVYIPNYNPTVVYGNWANTAYPPVYLPPPAGEPFVDSFVRGFGYSMGVATTYALFSSIDWDDDDHDHHHHDDDNYHHHDGGHRDGNGWQHNGDNINIDVNNFNRITGEHLTDKNMAWRHNPNYRNGVPYHDQDMAKRFHQTDVNGGMSATQLPAPTRDSQRQAAASQFQQRTHAAPVITRDTQRQAAAQRFNEAEHYGSYDDFRDFSRRQPLTQQQKDAARQRYQSASPEQRQAVHEKMQTNPQNQQRREAARERIQPASPEQRQAVREKMQTNPQIQQRRDAARERIQSASPEQRQVFKEKVQQRPLNQQQRDNARQRVQSASPEQRQVFREKVQESRPQRLNDSNHTARLNNEQRSAVRERLSERGARRLER”: the “soluble on expression in E. coli” value is on record as “not soluble”.

For the sequence “MKNESIKIFQKKKQVILEKWITIQSQDQGLNNDLITNEDLRVQSEELLYTFIDNLTDNNIENPDSRDFENVLDILSSISISRAKQGYSPRETGFYVYSLKEALLSVLNEEIKDSSVLYTQSMAINKLLDSFTISTFETFIKGREDVIFRQTDEITQISTPVIRVWDGILALPIIGTLDSSRTQVVMESLLQEIVDTGSSIAILDISGVPAVDSLVAQHLIKTVSATRLMGAECIISGIRPEIAQTVVHLGIDLSTIITKATLASALKTAFVMLNLEVNKKQRNKTV”, the “soluble on expression in E. coli” value was “not soluble”.

For the sequence “MKNGEQNGPTTCTNCFTQTTPVWRRNPEGQPLCNACGLFLKLHGVVRPLSLKTDVIKKRNRNSANS”, the “soluble on expression in E. coli” value is “soluble”.

“MKNIIIIGANGFTGRQILNDLSSKAQYKVTGCSLHPDILPKNGGNYHFITTDIRDEAVVKQLFKDVQPDVVINCSALSVPDYCETHHEEAWLTNVTAVEQLAHLCESYKSRFIHLSTDFVFDGKIDEKSGQLYTEKSLPAPVNYYGFTKWKGEEKVTEICSNYAIARVEIVYGKALPGQHGNIVQLVMNRLNAGQEIRVVSDQWRTPTYVGDVSAGVQHLVENAANGIFHICGEECLTIAEIAFQVADYMKLDRSLVHPATTEEMQEATPRPRFSGMSIAKARTILGYQPRKLKDILMEWKH”: the “soluble on expression in E. coli” value is on record as “not soluble”.

Turning to “MKNKLLYKLRSGKNPKFIYYSVNALRLIIPKGIFRLRLQGKLSSLSRRKDKEYIEHRVDYYNKLSGTVQLPSSAPHLSEHKMSKQKVYFFDTYQYTRWFSDQFQWGFCPGDVTFVPDYPSIVKSRPLTDDNVNSIVMKLDKVRHFIFVDDKKAFTEKKNMVIFRGKVKGKPSRKLFMEMYFHHPMCDLGDVSKNTTDPAEWRTEKKTINEHLDYKFIMALEGIDVASNLKWVMSSNSIAVMPRPTCETWFMEGTLIPNYHYIEIKPDFSDLEERLNYYIEHVDESLEIINHAHEYVSQFKDKRRENLISLLVLDKYFKMTGQKSLEHHHHHH”, the “soluble on expression in E. coli” value is on record as “soluble”.

In the case of “MKNTKLLLAIATSAALLTGCQNTHGIDTNMAISSGLNAYKAATLSDADAKAIANQGCAEMDSGNQVASKSSKYGKRLAKIAKALGNNINGTPVNYKVYMTSDVNAWAMANGCVRVYSGLMDMMNDNEIEGVLGHELGHVALGHSLAEMKASYAIVAARDAISATSGVASQLSRSQLGDIAEGAINAKYSRDKESEADDFSFDLLKKRGISTQGLVGSFEKLASLDGGRTQSMFDSHPPSTERAQHIRDRIASGKLEHHHHHH”, the “soluble on expression in E. coli” value was “soluble”.

As to “MKPAYFISDLHLSEKQPELTALLLRFLRSSAAGQARAIYILGDLFDFWVGDDEVSELNTSVAREIRKLSDKGVAVFFVRGNRDFLIGQDFCRQAGMTLLPDYSVLDLFGCKTLICHGDTLCTDDRAYQRFRKIVHRKRLQKLFLMLPLKWRTRLATKIRRVSKMEKQVKPADIMDVNAAFTARQVRAFGAERLIHGHTHREHIHHENGFTRIVLGDWHNDYASILRVDGDGAVFVPLEKY”, the “soluble on expression in E. coli” value is reported as “not soluble”.

On to “MKPIACLFAAFAALPVLAHAQTVQMPDVLAAEHALSLGKPVTATIDLTRCTGDTATTPAGTTRGGVTVNPYRIQPDNTLSFSDTHFTVRSDGTPITQFLRYSIDTSGTARFSSYIFAMPAYTLQSQVSYTCKLGEGVKLFARFLEHHHHHH”, for which the “soluble on expression in E. coli” value is “soluble”.

In the case of “MKPQWQQYIQIINQVVKPALGCTEPIAAAYAAAVARTLLNDDPDSIAVQVSDNLYKNSMGVYVPGTGKIGLAIAAAAGALAGNADAGLEVLASVTPEQVAQAQALIDAAKVKVERTETDEFIYCCVTLTSGEQEAMVKICGGHTLIAEKRLNGELVFTADNAQAKATGSICDGVDINIESIYRFAEEVPFEEIQFILKASELNSKLSDEGMSKPYGLEVGRTMKNGIAAGIIGEDLLNKIVMLTAAASDARMGGANLPAMSNLGSGNQGIAATIPVVITAQCYKVSEEKLARALIMSHLGAIYIKSHYPPLSAFCGNTVTSAAASMAMVYLAGGSFEQSCFAIQNVISDSSGMVCDGAKASCAMKVSTSSSAAVRSFLMALSSQNVSGQGIIANHVEKTIKNIGKMVLNGMSSTDVTIINIMSE”, the “soluble on expression in E. coli” value was “not soluble”.

Consider “MKPRQRQAAILEYLQKQGKCSVEELAQYFDTTGTTIRKDLVILEHAGTVIRTYGGVVLNKEESDPPIDHKTLINTHKKELIAEAAVSFIHDGDSIILDAGSTVLQIVPLLSRFNNITVMTNSLHIVNALSELDNEQTILMPGGTFRKKSASFHGQLAENAFEHFTFDKLFMGTDGIDLNAGVTTFNEVYTVSKAMCNAAREVILMADSSKFGRKSPNVVCSLESVDKLITDAGIDPAFRQALEEKGIDVIITGESNELEHHHHHH”, for which the “soluble on expression in E. coli” value was “soluble”.

For “MKPTTRSASKRANAESSGVNQPEKKSRIPETEIVEDPLEIEVPPASADGTDNKSFSENEYDDDHSSSSDEESDDEYVVETHKSSMVDAAESSEGERPDERIVRELEQKIARGLKNDRILKKKKKALDGEVSDTEDVVCEYEPQAMPKQRRRRLYRRKMTRPQGVPKRRRIKRPDLELADDYTCDTFAEQGLTLKSLTSDIKQDDPEVDWKAMRRMGIGIRSTKRDEINSDEDEADIISHSFSFYQTRNSKEQVAQAVELNMNPFSEKIASYNAPKSVHGYSRSSIQNQHSGFIDKNDIKYPDELLWQEPFTHLVFFQSTFNAHESSIKFLNNVANSKKQERDSKLMKEIRERIKQKSLGHVDVPIDYTNVESTSEQPSTIDQYSLPDLTSQCDEGTIKEEEDFDYLMVDAEF”, the “soluble on expression in E. coli” value is recorded as “not soluble”.

Turning to “MKQRPIPRPQTDTTAALQALADALACLRNSATVLAFLRDLCTPAELEALADRWRVVPLLLQGRPYRDIHDHTGISVTTIGRVARCLEHGTGGYAAVLQAQAMPPASSIEKPQ”, the “soluble on expression in E. coli” value was “not soluble”.

Turning to “MKRESVLFQAARKHHLNLLFPLFRANTSASYPVSRFISRPITVLSKGFAKGFFCIKKETVDKIQQFFFDKWAIEERRYHQLLSILLPGLKNGNLASVEQYLGAKRIEAYAAVPYVAGRWELDDASLPQGAVVVLTCEGVLYSWETYRLERYISAAMANDRISGVVLFVNGPGGMITRVDVLEKLIRQSPKPIVAYITGVCASAHFWFVSACARRFVSSPMDEIGSCGVVYTFQSFKEYYAQMGIEIEDIYPDSADLKNRAYRDKEEKQDDTLIKENLSFYHHLFAQTIARNLGVKYDAQDPLFRGQTFFADTALAKGYVDAYGSLEDAILWVSAQKTVKRANKMILEHHHHHH”, the “soluble on expression in E. coli” value is listed as “not soluble”.

Take “MKRIQEIQQNLERLAEMDEHLEQCEEWNVVAQEIVQKLSTIRKEVERSAAPTPLLLTPPGSCGSGSIYSDISSEMTNVYTEAVEAYDQQIYSRCVRLVEGANRESPVDMCLISLAHHSYAEMVNAASGSDDAMKFAKWWAEFLDSVEAGRGHSEKIELLDYEAVAYEKIVKLGGVADVEKLIEVVVRSYEMVTLLNRPYHILSLQKLFRLTNVLSSSEVDLESDAFSSAKTVVLTGIQNVLRDRKKFAQLGKFNEHNMKIAMRRTAQPDFRVRYCEKR”: the “soluble on expression in E. coli” value is “soluble”.

In the case of “MKRRKQSRRWRGKKYAPVMIGMLVLLMNLADLKISNLISGSIICQAAERQSENTETENNSGGTEKEKITQTEASTVSDILEELDLSRVQRMLDQMLGEESFSMKDMLDGLIKGEKVLSEDTVQEMVHSFLFSGLEKEKS”, the “soluble on expression in E. coli” value was “not soluble”.

Regarding “MKRSAFFISDGTGITAETLGQSLLAQFENITFNKFTRPYIDSVEKARAMVQQINNAADKDDVRPIIFDTIVNQDIREILATSNGFMIDIFSTFLAPLEQELSSHSSYSVGKSHSIGHNSNYMERIEAVNFALDNDDGARTHYYDKADIILVGVSRCGKTPTCLYMAMQFGIRAANYPLTEDDMERLQLPPALKQHREKLFGLTIDPDRLTAIRHERKPNSRYSSYAQCEFEVREVESLFRRENIPNINSTHFSVEEISAKVLVEKGVERRFKLEHHHHHH”, the “soluble on expression in E. coli” value is “not soluble”.

For “MKSHKMMGGGISMHYITACLKIISDKDLNEIMKEFKKLEEETNKEEGCITFHAYPLEPSERKIMLWEIWENEEAVKIHFTKKHTIDVQKQELTEVEWLMKSNVND”, the “soluble on expression in E. coli” value was “soluble”.

As to “MKSLIIVNPADCIGCRTCEVACVVAHPSEQELNADVFLPRLKVQRLDSISAPVMCHQCENAPCVGACPVGALTMGEQVVQTNSARCIGCQSCVSACPFGMITIQSLPGDTRQQIVKCDLCEQREEGPACVESCPTQALQLLTERELRRVRQQRIVASGENPL”, the “soluble on expression in E. coli” value is reported as “not soluble”.

For “MKTAIVTDSTAYLPKEVRERLGIRLIPLSVIFGNETYREEIDMTADEFFAKIKQHPTLPTTSQPSVGEFVDLFTAIREEGYEAVVSIHLSSGISGTYQGAVTAGTMVDGLRVYAYDSEISCMAQGFYAIEAAEMAQAGRSPEDIIARLDEMKQTLRAYFMVDDLAHLQRGGRLTGAQAFIGGLLQIKPLLRFENKVIVPFEKIRTRKKAIHRIEELFAEDAEKGVPLKAAIIHANQPDEAHRWRDELSARYPHVEFSISYFGPVIATHVGEGALGLTWYQP”, the “soluble on expression in E. coli” value is “soluble”.

As for “MKTAQEFRAGQVANINGAPWVIQKAEFNKSGRNAAVVKMKLKNLLTGAGTETVFKADDKLEPIILDRKEVTYSYFADPLYVFMDSEFNQYEIEKDDLEGVLTFIEDGMTDICEAVFYNDKVISVELPTTIVRQIAYTEPAVRGDTSGKVMKTARLNNGAELQVSAFCEIGDSIEIDTRTGEYKSRVKA”, the “soluble on expression in E. coli” value is “not soluble”.

As to “MKTFESLFAELSEKAQTRPEGSLTVDELDKGTHFIGKKIIEEAGETWMAAEYEGADRTAEEMSQLLYHVQVMMIKHGLTLEDVYKHL”, the “soluble on expression in E. coli” value is on record as “soluble”.

In the case of “MKTIEEIKSTPKTVMKKPELLAPAGNLEKLKIAVHYGADAVFLGGQEYGLRSNADNFTMEEIAEGVEFANRYGAKIYVTTNIIAHDENIEGLESYLRNLEKTGATGIIVADPLIIETCKEVAPKLEIHLSTQQSLSNYKAVEYWKEEGLDRVVLARETGAMEMREMKEKVDIEIEAFIHGAMCIAYSGRCTLSNHMTARDSNRGGCCQSCRWDYELLEVDDNGELDVFYNQGEVTPFAMSPKDLKLIESIPQMMDIGVDSLKIEGRMKSIHYIATVVSVYRKVIDAYAADPDNFKINPEWLIELDKCANRDTAPAFFEGTPGYEEQMFGQQQSKKSSFDFCGLVLDYNEDTKIATIQQRNNFKPGQEIEFFGPEIETFTQVVEAIYDEEGNSLDAARHPLQIVQIKVDRPIYPNNMMRKEIG”, the “soluble on expression in E. coli” value was “not soluble”.

In the case of “MKTIGLIGGMSWESTTSYYQLINETIKKELGGLHSAKILLYSVDFAEIEHYQASDDWAKSAEVLSQIAQKLEQAGADFIVICTNTMHKVAPQIQKQIAIPILHIAQATAEAILENGIQKV”, the “soluble on expression in E. coli” value is “not soluble”.

Source of the values: the DeepSol protein solubility set.
